# T1: GFP-NBR1 (recombinant, purified) (UniProt Q14596 1-966)
# T1 construct: NBR1; source: HEK293 (pCAGGSsH-C vector, VBCF ProTech facility), purified as described previously; not shown: GFP, N-terminal, kept
# T1 sequence (looked up): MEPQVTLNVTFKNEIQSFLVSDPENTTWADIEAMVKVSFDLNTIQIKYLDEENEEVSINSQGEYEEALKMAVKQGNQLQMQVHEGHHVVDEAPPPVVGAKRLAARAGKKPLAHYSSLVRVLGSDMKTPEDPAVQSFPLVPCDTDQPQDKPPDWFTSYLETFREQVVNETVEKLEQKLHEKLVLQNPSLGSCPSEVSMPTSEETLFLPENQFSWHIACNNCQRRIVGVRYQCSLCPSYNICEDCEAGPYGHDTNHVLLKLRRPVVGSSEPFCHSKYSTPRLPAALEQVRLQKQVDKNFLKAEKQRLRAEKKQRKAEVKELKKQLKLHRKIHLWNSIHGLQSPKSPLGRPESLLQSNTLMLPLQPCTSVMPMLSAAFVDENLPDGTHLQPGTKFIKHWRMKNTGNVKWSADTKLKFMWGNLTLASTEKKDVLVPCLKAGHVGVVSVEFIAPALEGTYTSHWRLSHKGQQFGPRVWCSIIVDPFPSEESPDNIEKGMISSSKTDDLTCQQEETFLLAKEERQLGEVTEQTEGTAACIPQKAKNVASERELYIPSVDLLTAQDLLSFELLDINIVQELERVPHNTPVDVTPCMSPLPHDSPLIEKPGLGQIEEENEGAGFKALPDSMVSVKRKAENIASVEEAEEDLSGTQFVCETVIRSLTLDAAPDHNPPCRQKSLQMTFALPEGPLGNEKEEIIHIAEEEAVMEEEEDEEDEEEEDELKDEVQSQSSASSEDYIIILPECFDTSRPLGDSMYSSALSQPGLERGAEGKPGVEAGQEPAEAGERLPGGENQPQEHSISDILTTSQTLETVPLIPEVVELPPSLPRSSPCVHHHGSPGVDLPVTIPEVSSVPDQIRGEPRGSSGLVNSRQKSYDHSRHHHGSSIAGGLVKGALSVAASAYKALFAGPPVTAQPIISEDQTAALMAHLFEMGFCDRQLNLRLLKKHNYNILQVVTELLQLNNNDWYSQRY
# T2: NBR1 (untagged, recombinant) (UniProt Q14596 1-966)
# T2 construct: NBR1; source: HEK293 (pCAGGSsH-C vector, VBCF ProTech facility), purified as described previously
# T2 sequence (looked up): T1 sequence (looked up)
# B1: GST-N domain (aa420-506 of TAX1BP1) (domain or fragment, UniProt Q86VP1 420-506, looked up)
# chain: DQDKTDTLEHELRREVEDLKLRLQMAADHYKEKFKECQRLQKQINKLSDQSANNNNVFTKKTGNQQKVNDASVNTDPATSASTVDVK
# B2: GFP-N-domain (aa420-506 of TAX1BP1) (domain or fragment, UniProt Q86VP1 420-506, looked up)
# chain: B1 chain
# notes: TAX1BP1 N-domain, aa420-506; Cloned into pGEX-4T1; the methods name the purified protein GFP-N domain and give elution either by TEV cleavage or by glutathione; also called N-domain alone; isolated N-domain; source: E. coli Rosetta (pGEX-4T1), purified (GST beads, SEC); not shown: GFP, N-terminal, kept
# B3: GFP-CC2-LIR1 (NBR1 aa685 - aa757) (domain or fragment, UniProt Q14596 685-757, looked up)
# chain: LGNEKEEIIHIAEEEAVMEEEEDEEDEEEEDELKDEVQSQSSASSEDYIIILPECFDTSRPLGDSMYSSALSQ
# notes: NBR1 fragment CC2-LIR1, aa685-757; The methods name the purified protein GST-GFP-CC2-LIR1 and give elution either by TEV cleavage or by glutathione; also called GST-GFP-CC2-LIR1; GFP tagged NBR1 fragment (CC2-LIR2); source: E. coli Rosetta (pGEX-4T1), purified (GST beads, SEC); not shown: GFP, N-terminal, kept
# What was measured:
# Conditions in all cases: both partners purified
# [1] = biological target: T1, GFP-NBR1 (recombinant, purified); experiment: microscopy-based protein-protein interaction assay (beads); 2.5 µM GST-TAX1BP1 (FL, domain, truncations, point mutants) as bait on GST beads; 1 µM GFP-NBR1 as prey; 25 mM HEPES pH 7.5, 150 mM NaCl, 1 mM DTT; 15-30 min at RT; confocal imaging
# [2] = biological target: T2, NBR1 (untagged, recombinant); experiment: in vitro condensation assay (recruitment to p62 condensates, microscopy); 2 µM mCherry-p62 S403E, 1 µM NBR1 (or without NBR1), 2 µM GFP-TAX1BP1 (FL, ΔN or ΔZnF; N domain) in 25 mM HEPES pH 7.5, 150 mM NaCl, 1 mM DTT; condensation triggered with 5 µM GST-4xUB; spinning disk microscopy
# [3] = biological target: T3, 10x-His-mCherry-TAX1BP1 (full length, FL) (UniProt Q86VP1 1-789); experiment: microscopy-based protein-protein interaction assay (beads); mCherry-TAX1BP1 FL or ΔN on RFP-trap beads; GFP tagged NBR1 fragment CC2-LIR1 as prey
# T3 construct: TAX1BP1, full length (FL); also called mCh-TAX1BP1; mCherry-TAX1BP1 FL; source: Sf9 insect cells (pLIB vector, baculovirus), purified as described previously; not shown: mCherry, N-terminal, kept
# T3 sequence (Q86VP1 whole entry, the tested form may be a part): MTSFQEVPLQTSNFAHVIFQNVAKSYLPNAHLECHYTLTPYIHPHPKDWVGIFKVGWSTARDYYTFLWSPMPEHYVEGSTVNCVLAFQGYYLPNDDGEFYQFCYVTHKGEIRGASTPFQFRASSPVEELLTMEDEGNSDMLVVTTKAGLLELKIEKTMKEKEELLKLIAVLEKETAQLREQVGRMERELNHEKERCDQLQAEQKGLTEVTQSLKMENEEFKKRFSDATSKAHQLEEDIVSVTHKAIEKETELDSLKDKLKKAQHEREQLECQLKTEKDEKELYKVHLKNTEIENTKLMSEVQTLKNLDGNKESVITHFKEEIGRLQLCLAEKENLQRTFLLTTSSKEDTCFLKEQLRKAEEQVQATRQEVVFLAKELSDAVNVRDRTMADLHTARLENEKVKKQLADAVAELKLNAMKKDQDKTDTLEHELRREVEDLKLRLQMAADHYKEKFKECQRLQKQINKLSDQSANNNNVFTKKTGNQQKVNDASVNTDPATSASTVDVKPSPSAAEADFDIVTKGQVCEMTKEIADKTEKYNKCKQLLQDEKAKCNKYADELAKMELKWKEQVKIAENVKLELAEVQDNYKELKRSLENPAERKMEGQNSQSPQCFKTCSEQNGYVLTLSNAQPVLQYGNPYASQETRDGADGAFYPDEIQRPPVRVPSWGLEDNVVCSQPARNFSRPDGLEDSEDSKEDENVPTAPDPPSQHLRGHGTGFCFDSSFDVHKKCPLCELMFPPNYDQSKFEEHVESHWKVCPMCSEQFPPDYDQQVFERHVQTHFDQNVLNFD
binder,measurement,setting,value
B1,binding result,[1],binds
B2,binding result,[2],binds
B3,binding result,[3],binds
